Measurements reported in paper PMC4826628.

Molecular target: Dlx5[Q178P] homeodomain (Homo sapiens, UniProt P56178 137-198, Q178P)
Assay: CD thermal denaturation

Dlx5[Q178P] homeodomain, sequence (P56178 137-198 Q178P): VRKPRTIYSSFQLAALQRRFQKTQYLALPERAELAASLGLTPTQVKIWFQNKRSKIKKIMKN

B1: 14-bp palindromic TAAT duplex (dsDNA)
DNA 1: CGACTAATTAGTCG
DNA 2: CGACTAATTAGTCG
binding result: binds
